In patent US20080076717A1:
pKd: −log10 of the molar value.

Molecular target: SPR-8: ASARM-PO4 biotin
Assay: SPR (Biacore 3000): biotinylated ASARM-PO4 captured on neutravidin, PHEX as analyte

pKd: 6.77
Substance: PHEX (free soluble-PHEX analyte) (from UniProt P78562 46-749) (enzyme)
